Measurements: patent US9156883B2, “Binding molecules for human factor VIII and factor VIII-like proteins” (DYAX CORP., priority 1999, dated 2015)
Positions of bridges follow the written chain, without caps; N, C: chain ends. No end group written: not given here. *: point of attachment. NHNH2 = NN*

Molecular target: T1, native human factor VIII (nhfVIII) (Homo sapiens, UniProt P00451)
T1 construct: native human factor VIII (nhfVIII); purchased American Diagnostica, Inc. (Greenwich, Conn.) #408 nat
T1 sequence (P00451 20-1332 limits assumed): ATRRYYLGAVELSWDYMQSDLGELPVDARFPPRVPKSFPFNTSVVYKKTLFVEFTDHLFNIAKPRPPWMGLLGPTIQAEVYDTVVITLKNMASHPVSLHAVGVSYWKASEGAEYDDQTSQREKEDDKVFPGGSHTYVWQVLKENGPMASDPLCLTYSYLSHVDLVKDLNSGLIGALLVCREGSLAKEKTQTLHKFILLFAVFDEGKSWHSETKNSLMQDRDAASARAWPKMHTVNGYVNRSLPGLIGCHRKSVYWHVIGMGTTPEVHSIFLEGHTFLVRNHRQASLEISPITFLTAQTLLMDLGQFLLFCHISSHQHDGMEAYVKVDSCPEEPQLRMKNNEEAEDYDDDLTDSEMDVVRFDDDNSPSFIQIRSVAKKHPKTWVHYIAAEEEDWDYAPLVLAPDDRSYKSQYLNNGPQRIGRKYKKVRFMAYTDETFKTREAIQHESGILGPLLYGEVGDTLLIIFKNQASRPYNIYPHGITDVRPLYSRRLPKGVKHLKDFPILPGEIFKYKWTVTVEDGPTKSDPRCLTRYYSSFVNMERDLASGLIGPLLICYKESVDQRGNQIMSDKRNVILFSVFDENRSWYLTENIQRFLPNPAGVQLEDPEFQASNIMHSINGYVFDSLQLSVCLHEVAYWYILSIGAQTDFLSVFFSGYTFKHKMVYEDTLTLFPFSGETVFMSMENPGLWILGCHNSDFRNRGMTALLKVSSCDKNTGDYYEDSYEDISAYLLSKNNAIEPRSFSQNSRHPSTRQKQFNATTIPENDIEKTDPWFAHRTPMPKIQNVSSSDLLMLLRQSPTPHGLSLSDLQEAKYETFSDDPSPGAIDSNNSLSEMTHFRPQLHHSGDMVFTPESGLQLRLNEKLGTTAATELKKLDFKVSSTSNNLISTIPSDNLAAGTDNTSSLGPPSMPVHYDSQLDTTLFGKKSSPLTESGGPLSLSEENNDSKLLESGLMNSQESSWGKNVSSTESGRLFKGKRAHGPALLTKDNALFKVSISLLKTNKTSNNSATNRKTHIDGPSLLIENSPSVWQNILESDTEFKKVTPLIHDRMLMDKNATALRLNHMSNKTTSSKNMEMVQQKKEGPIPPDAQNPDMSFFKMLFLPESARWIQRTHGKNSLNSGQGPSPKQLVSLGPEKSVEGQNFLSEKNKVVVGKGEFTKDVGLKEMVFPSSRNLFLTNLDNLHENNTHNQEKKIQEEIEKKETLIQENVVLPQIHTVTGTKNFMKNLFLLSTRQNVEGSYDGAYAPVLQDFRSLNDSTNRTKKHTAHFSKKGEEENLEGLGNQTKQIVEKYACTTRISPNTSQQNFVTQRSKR
T1 sequence (P00451 1668-2351 limits assumed): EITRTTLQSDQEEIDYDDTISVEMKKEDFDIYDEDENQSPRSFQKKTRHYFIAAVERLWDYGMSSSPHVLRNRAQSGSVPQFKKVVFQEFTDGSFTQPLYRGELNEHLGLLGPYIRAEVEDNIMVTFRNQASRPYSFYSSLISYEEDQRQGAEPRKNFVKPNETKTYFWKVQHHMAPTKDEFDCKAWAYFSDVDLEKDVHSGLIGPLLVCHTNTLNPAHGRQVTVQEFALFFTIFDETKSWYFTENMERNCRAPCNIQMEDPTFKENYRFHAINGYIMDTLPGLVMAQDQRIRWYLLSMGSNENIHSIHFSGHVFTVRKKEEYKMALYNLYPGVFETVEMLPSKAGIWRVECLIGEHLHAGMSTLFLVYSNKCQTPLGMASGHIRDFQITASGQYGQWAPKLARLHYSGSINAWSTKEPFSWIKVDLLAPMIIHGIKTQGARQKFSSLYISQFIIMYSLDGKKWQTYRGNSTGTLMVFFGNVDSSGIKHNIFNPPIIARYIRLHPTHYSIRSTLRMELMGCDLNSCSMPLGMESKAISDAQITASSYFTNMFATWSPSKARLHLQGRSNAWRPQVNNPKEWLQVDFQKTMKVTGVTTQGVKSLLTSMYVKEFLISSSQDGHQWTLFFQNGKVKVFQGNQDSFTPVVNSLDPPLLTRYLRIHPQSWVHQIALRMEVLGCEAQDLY
Assay: Comparative batch binding and elution of nhfVIII with immobilized polypeptide ligands
Details: batch procedure
Method: For these experiments, nhfVIII was obtained from American Diagnostica, Inc. (Greenwich, Conn.; product #408 nat) in the form of a lyophilized powder containing stabilizing agents. The nhfVIII was reconstituted according to the manufacturer's instructions in a reconstituting buffer (72 mM NH4OAc, pH 6.3, 360 mM NaCl, 0.04% Tween 80 (Buffer 1).
A commercial ELISA kit (IMUBIND fVIII ELISA kit, Product #884, American, Inc., Greenwich, Conn.) developed to detect factor VIII was used according to the manufacturer's specifications in order to detect both the REFACTO® and the nhfVIII targets. The kit employs a sandwich ELISA assay in which the target is captured by an immobilized monoclonal antibody and the captured target is detected with a second monoclonal antibody-horseradish peroxidase (HRP) conjugate. Addition of the peroxidase substrate and its subsequent reaction with the HRP produces a blue color (detected at 630 nm) which changes to yellow (detected at 450 nm) on addition of the 0.5N sulfuric acid stop solution. Color response is calibrated with factor VIII standards provided by the manufacturer.
Following the pH 2 washes, the beads were washed once in PBS containing 0.05% azide and stored at 4° C.
A sample of nhfVIII was diluted to a final concentration of 100 U/ml by addition of 2.32 ml H2O, 180 μl 1M NH4OAc, pH 6.3 (to 72 mM), and 1 μl Tween 80 (to 0.04%). REFACTO® stock solution was diluted to 100 U/ml in a modified Buffer 1, in which the NaCl concentration was reduced from […] to 330 mM.
Immobilized peptides were tested for binding to nhFVIII in comparison with REFACTO®. […] Next, nhfVIII and REFACTO® solutions were mixed with regenerated affinity beads bearing the CS-454, CS-456, and CS-458 ligands in a comparative batch purification procedure.

Q: Which “binding and release of nhfVIII compared with a factor VIII-like polypeptide (in words)” value does the source give for “AEGTGDFCWVFAFDHCHDPGPEGGGS-NHNH2 (disulfide 8-16 (inferred)) [CS-458]” here?
A: Its value is “bind and release nhfVIII under similar conditions and with similar yields”.

Q: For “AEGTGDFGCSWLFPCPFDPGPEGGGS-NHNH2 (disulfide 9-15 (inferred)) [CS-456]”, which “binding and release of nhfVIII compared with a factor VIII-like polypeptide (in words)” value is on record?
A: The value was “bind and release nhfVIII under similar conditions and with similar yields”.

Q: How did the “binding and release of nhfVIII compared with a factor VIII-like polypeptide (in words)” value turn out when “AEGTGDHLCGAWFRPCDADPGPEGGGS-NHNH2 (disulfide 9-16 (inferred)) [CS-454]” was run?
A: Its value is “bind and release nhfVIII under similar conditions and with similar yields”.
